Data on 4 molecules can be found in patent publication US20230395193A1 (priority 2020, published 2023).

For the test, the system named is SARS-CoV-1, MERS-CoV and SARS-CoV-2 proteins in HEK293T cells. Set-up: species or system human.

B1: M-Q5BJH7 (protein, UniProt Q5BJH7 1-314, looked up)
Protein YIF1B: MHPAGLAAAAAGTPRLRKWPSKRRIPVSQPGMADPHQLFDDTSSAQSRGYGAQRAPGGLSYPAASPTPHAAFLADPVSNMAMAYGSSLAAQGKELVDKNIDRFIPITKLKYYFAVDTMYVGRKLGLLFFPYLHQDWEVQYQQDTPVAPRFDVNAPDLYIPAMAFITYVLVAGLALGTQDRFSPDLLGLQASSALAWLTLEVLAILLSLYLVTVNTDLTTIDLVAFLGYKYVGMIGGVLMGLLFGKIGYYLVLGWCCVAIFVFMIRTLRLKILADAAAEGVPVRGARNQLRMYLTMAVAAAQPMLMYWLTFHLVR
B1 displayed an MIST_MERS of 0.3712, an MIST_SARS1 of 0.9893, an MIST_SARS2 of 0.5979 and a Saint_MERS of 0. For the same molecule, the Saint_SARS1 is listed as 0.97 and the Saint_SARS2 is given as 1.

B2: M-Q68DH5 (protein, UniProt Q68DH5 1-695, looked up)
G-protein coupled …: MSGAALGLEIVFVFFLALFLLHRYGDFKKQHRLVIIGTLLAWYLCFLIVFILPLDVSTTIYNRCKHAAANSSPPENSNITGLYATANPVPSQHPCFKPWSYIPDGIMPIFWRVVYWTSQFLTWILLPFMQSYARSGGFSITGKIKTALIENAIYYGTYLLIFGAFLIYVAVNPHLHLEWNQLQTIGIAAANTWGLFLLVLLLGYGLVEIPRSYWNGAKRGYLLMKTYFKAAKLMTEKADAEENLEDAMEEVRKVNESIKYNHPLRKCVDTILKKCPTEYQEKMGRNMDDYEDFDEKHSIYPSEKSLVKLHKQVIYSVQRHRRTQVQWQILLEQAFYLEDVAKNETSATHQFVHTFQSPEPENRFIQYFYNPTFEWYWECLLRPWFYKILAVVLSIFSVIVVWSECTFFSTTPVLSLFAVFIQLAEKTYNYIYIEIACFLSIFFLSICVYSTVFRIRVFNYYYLASHHQTDAYSLLFSGMLFCRLTPPLCLNFLGLTHMDSSISHKNTQPTAYTSIMGSMKVLSFIADGFYIYYPMLVVILCIATYFSLGTRCLNLLGFQQFMGDDDMTSDLVNEGKELIRKEKRKRQRQEEGENRRREWKERYGHNREDSTRNRNIHTDPKESNFSDVNTNRSAFKYTRANNRTERDRIELLQDAEPLDFNAETFTDDPLESESGRYQPGGRYLSMSRSDIFNDV
modifications: interaction partner of SARS-CoV-2 M
B2: the MIST_MERS was 0.9869, the MIST_SARS1 turned out to be 0.6855, the MIST_SARS2 is 0.2449 and the Saint_MERS is recorded as 0.95. For the same molecule, the Saint_SARS1 is 0 and the Saint_SARS2 is 0.

B3: M-Q4KMQ2 (protein, UniProt Q4KMQ2 1-910, looked up)
Anoctamin-6: MKKMSRNVLLQMEEEEDDDDGDIVLENLGQTIVPDLGSLESQHDFRTPEFEEFNGKPDSLFFNDGQRRIDFVLVYEDESRKETNKKGTNEKQRRKRQAYESNLICHGLQLEATRSVLDDKLVFVKVHAPWEVLCTYAEIMHIKLPLKPNDLKNRSSAFGTLNWFTKVLSVDESIIKPEQEFFTAPFEKNRMNDFYIVDRDAFFNPATRSRIVYFILSRVKYQVINNVSKFGINRLVNSGIYKAAFPLHDCKFRRQSEDPSCPNERYLLYREWAHPRSIYKKQPLDLIRKYYGEKIGIYFAWLGYYTQMLLLAAVVGVACFLYGYLNQDNCTWSKEVCHPDIGGKIIMCPQCDRLCPFWKLNITCESSKKLCIFDSFGTLVFAVFMGVWVTLFLEFWKRRQAELEYEWDTVELQQEEQARPEYEARCTHVVINEITQEEERIPFTAWGKCIRITLCASAVFFWILLIIASVIGIIVYRLSVFIVFSAKLPKNINGTDPIQKYLTPQTATSITASIISFIIIMILNTIYEKVAIMITNFELPRTQTDYENSLTMKMFLFQFVNYYSSCFYIAFFKGKFVGYPGDPVYWLGKYRNEECDPGGCLLELTTQLTIIMGGKAIWNNIQEVLLPWIMNLIGRFHRVSGSEKITPRWEQDYHLQPMGKLGLFYEYLEMIIQFGFVTLFVASFPLAPLLALVNNILEIRVDAWKLTTQFRRLVPEKAQDIGAWQPIMQGIAILAVVTNAMIIAFTSDMIPRLVYYWSFSVPPYGDHTSYTMEGYINNTLSIFKVADFKNKSKGNPYSDLGNHTTCRYRDFRYPPGHPQEYKHNIYYWHVIAAKLAFIIVMEHVIYSVKFFISYAIPDVSKRTKSKIQREKYLTQKLLHENHLKDMTKNMGVIAERMIEAVDNNLRPKSE
B3 came in with an MIST_MERS of 0, an MIST_SARS1 of 0.864, an MIST_SARS2 of 0.9939 and a Saint_MERS of 0. This molecule yielded a Saint_SARS1 of 0.32 and a Saint_SARS2 of 1.

B4: M-Q5JRX3 (protein, UniProt Q5JRX3 29-1037, looked up)
Presequence protease, …: NSNRACERALQYKLGDKIHGFTVNQVTSVPELFLTAVKLTHDDTGARYLHLAREDTNNLFSVQFRTTPMDSTGVPHILEHTVLCGSQKYPCRDPFFKMLNRSLSTFMNAFTASDYTLYPFSTQNPKDFQNLLSVYLDATFFPCLRELDFWQEGWRLEHENPSDPQTPLVFKGVVFNEMKGAFTDNERIFSQHLQNRLLPDHTYSVVSGGDPLCIPELTWEQLKQFHATHYHPSNARFFTYGNFPLEQHLKQIHEEALSKFQKIEPSTVVPAQTPWDKPREFQITCGPDSFATDPSKQTTISVSFLLPDITDTFEAFTLSLLSSLLTSGPNSPFYKALIESGLGTDFSPDVGYNGYTREAYFSVGLQGIAEKDIETVRSLIDRTIDEVVEKGFEDDRIEALLHKIEIQMKHQSTSFGLMLTSYIASCWNHDGDPVELLKLGNQLAKFRQCLQENPKFLQEKVKQYFKNNQHKLTLSMRPDDKYHEKQAQVEATKLKQKVEALSPGDRQQIYEKGLELRSQQSKPQDASCLPALKVSDIEPTIPVTELDVVLTAGDIPVQYCAQPTNGMVYFRAFSSLNTLPEELRPYVPLFCSVLTKLGCGLLDYREQAQQIELKTGGMSASPHVLPDDSHMDTYEQGVLFSSLCLDRNLPDMMQLWSEIFNNPCFEEEEHFKVLVKMTAQELANGIPDSGHLYASIRAGRTLTPAGDLQETFSGMDQVRLMKRIAEMTDIKPILRKLPRIKKHLLNGDNMRCSVNATPQQMPQTEKAVEDFLRSIGRSKKERRPVRPHTVEKPVPSSSGGDAHVPHGSQVIRKLVMEPTFKPWQMKTHFLMPFPVNYVGECIRTVPYTDPDHASLKILARLMTAKFLHTEIREKGGAYGGGAKLSHNGIFTLYSYRDPNTIETLQSFGKAVDWAKSGKFTQQDIDEAKLSVFSTVDAPVAPSDKGMDHFLYGLSDEMKQAHREQLFAVSHDKLLAVSDRYLGTGKSTHGLAILGPENPKIAKDPSWIIQ
modifications: interactor of viral M protein
In the case of B4, the MIST_MERS worked out at 0, the MIST_SARS1 is recorded as 0.001111, the MIST_SARS2 is listed as 0.9523 and the Saint_MERS is on record as 0. The Saint_SARS1 is given as 0 and the Saint_SARS2 was found to be 1.
